Measurements as given in PMC12346298, “Structures of MmpL complexes reveal the assembly and mechanism of this family of transporters” (Science Advances, 2025).

How the values were obtained:
[1] = target: mycobacterial membrane protein large 5 (MmpL5) transporter, M. smegmatis (M. smegmatis) (UniProt A0QS80); assay: cryo-EM structure; particle class 2 (tripartite trimeric AcpM-MmpL5-MmpS5 complex) from the same LMNG-solubilized crude membrane sample; Build and Retrieve processing; 2.81 Å
[2] = target: mycobacterial membrane protein large 5 (MmpL5) transporter, M. smegmatis (M. smegmatis) (UniProt A0QS80); assay: cryo-EM structure; particle class 3 (dipartite trimeric AcpM-MmpL5 complex) from the same LMNG-solubilized crude membrane sample; Build and Retrieve processing; 3.37 Å
[3] = target: T1, mycobacterial membrane protein large 5 (MmpL5) transporter, M. smegmatis (M. smegmatis, UniProt A0QS80 1-967); assay: cryo-EM structure; particle class 2 (tripartite trimeric AcpM-MmpL5-MmpS5 complex) from the same LMNG-solubilized crude membrane sample; Build and Retrieve processing; 2.81 Å; settings: partners not purified
T1 construct: MmpL5 of Mycobacterium smegmatis, gene MSMEG_1382 cloned into pBUN250; 12 TM helices, periplasmic subdomains PD1-PD3 (PD3 = residues 499-684); Seen as a monomer (in 2D arrays) and as a homotrimer in different particle classes of one sample; Residues 493-702 are not modelled in 9MX0, residues 499-655 not in 9MW0; also called MSMEG_1382; source: M. smegmatis MC2-155, coexpressed with MmpS5 from …
T1 sequence (looked up): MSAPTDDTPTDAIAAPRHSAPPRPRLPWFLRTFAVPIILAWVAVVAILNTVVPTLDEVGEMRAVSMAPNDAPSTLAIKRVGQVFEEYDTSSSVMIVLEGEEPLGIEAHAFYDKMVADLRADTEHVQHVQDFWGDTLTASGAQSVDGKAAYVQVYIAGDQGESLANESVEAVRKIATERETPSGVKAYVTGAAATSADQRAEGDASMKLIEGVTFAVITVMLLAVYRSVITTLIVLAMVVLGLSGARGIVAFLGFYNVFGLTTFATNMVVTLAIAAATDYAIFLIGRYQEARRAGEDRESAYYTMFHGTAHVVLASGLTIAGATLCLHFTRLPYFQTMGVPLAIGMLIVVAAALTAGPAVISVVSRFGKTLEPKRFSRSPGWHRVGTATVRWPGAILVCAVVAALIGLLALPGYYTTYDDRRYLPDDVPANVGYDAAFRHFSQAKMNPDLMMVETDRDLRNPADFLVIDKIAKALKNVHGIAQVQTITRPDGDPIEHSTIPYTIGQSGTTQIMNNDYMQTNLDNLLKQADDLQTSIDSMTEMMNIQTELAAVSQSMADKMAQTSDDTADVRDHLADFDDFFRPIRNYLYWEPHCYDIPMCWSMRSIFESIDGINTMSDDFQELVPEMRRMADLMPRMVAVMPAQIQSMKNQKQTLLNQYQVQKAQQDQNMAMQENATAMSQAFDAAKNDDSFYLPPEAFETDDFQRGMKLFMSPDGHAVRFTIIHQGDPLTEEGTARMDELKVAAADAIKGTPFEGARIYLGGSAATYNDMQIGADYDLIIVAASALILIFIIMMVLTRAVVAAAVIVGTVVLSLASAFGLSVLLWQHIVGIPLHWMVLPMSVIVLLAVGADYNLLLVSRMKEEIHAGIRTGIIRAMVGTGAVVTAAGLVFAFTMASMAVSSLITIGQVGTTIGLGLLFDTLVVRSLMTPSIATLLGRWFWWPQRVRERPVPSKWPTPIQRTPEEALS

[4] = target: T1, mycobacterial membrane protein large 5 …; assay: cryo-EM structure; particle class 1 (2D arrays of monomeric AcpM-MmpL5 units) from LMNG-solubilized crude M. smegmatis membranes enriched by sucrose cushion; Build and Retrieve processing; 3.35 Å; settings: partners not purified

With “MmpS5 adaptor protein, M. smegmatis (natural protein)” the stoichiometry N (MmpS5:MmpL5 (3:3)) [1] was 1.

For “mycobacterial membrane protein large 5 (MmpL5) transporter, M. smegmatis (from UniProt A0QS80 1-967) (natural protein)”, the stoichiometry N [2] was 3 and the stoichiometry N [1] was 3.

B1: meromycolate extension acyl carrier protein M (AcpM), M. smegmatis (natural protein, UniProt A0R0B3 1-99, looked up)
chain: MAATQEEIIAGLAEIIEEVTGIEPSEVTPEKSFVDDLDIDSLSMVEIAVQTEDKYGVKIPDEDLAGLRTVGDVVAYIQKLEEENPEAAAALREKFAADQ
notes: AcpM, cytosolic meromycolate extension acyl carrier protein of Mycobacterium smegmatis, not overexpressed; identified in the cryo-EM maps and by proteomics; four-helix bundle, 82 C-alpha atoms compared; Came with MmpL5 from the host cells; source: endogenous, M. smegmatis MC2-155; detergent-solubilized (LMNG) crude membranes, enriched by sucrose cushion centrifugation
In the case of B1, the “stoichiometry N” value [3] is reported as 1 AcpM:MmpL5 (3:3) and the “stoichiometry N” value [4] is reported as 1 AcpM:MmpL5 (1:1).
